Source: patent US20230190718A1, “METHODS FOR THE TREATMENT OF PANCREATITIS AND PREVENTION OF PANCREATIC CANCER” (BOARD OF REGENTS, THE UNIVERSITY OF TEXAS SYSTEM, priority 2020, published 2023)
“Also recorded” adds a separate entry of the source.

Tests used:
[1] = system: repeated caerulein-induced pancreatitis in iKRAS animals; experiment: Pharmacological modulation of ADM in iKRAS mice rechallenged with caerulein (repeated pancreatitis); type: in vivo
Protocol: To explore the hypothesis that ADM is a physiologic, fast and reversible adaptation mediated by epithelial memory that limits the detrimental effects of repeated pancreatitis, the effects of pharmacological modulation of ADM was evaluated in iKRAS animals subjected to repeated inflammation.
(§1) Induction of acute pancreatitis. […] Control mice received injections of pyrogen-free PBS. Mice were examined daily for health conditions and sacrificed at the indicated time points by CO2 asphyxiation and cervical dislocation.
For ADM quantification two hematoxylin/eosin-stained 10×-magnification fields of whole-mount pancreata from two mice each experimental group were analyzed with ImageJ. ADM areas, expressed in pixels, were normalized to control (rechallenged) mice considered as reference.
Images, then, were analyzed with ImageJ and CC3 specific signal, expressed as area (pixels), was normalized to total pancreatic parenchyma using DAPI. From six to nine 4×-magnification fields of whole-mount pancreata from three mice each experimental group were analyzed.

[2] = system: Caerulein-induced pancreatitis; experiment: Pretreatment with ADM inducers in caerulein-induced pancreatitis: histology (ADM) and CD45 infiltration; type: in vivo, mice; settings: EGF 1.2 mg/kg i.p., two injections a day for four days, before caerulein; 24 hrs after caerulein; compared with sulindac
Excerpt: Epigenetic modifiers: Recently, the emerging role of epigenetic regulation has led to the development of a wide spectrum of small molecules targeting selectively bromodomain and extra-terminal (BET) protein family which are currently under evaluation in preclinical model of hematological malignancies and solid tumors (Asangani et al., 2014; Delmore et al., 2011; Filippakopoulos et al., 2010). Leveraging the persistent chromatin modifications induced by an acute inflammatory event, the possibility of limiting the detrimental effects of repeated pancreatitis was tested through the administration of INCB054329, a BRD4 inhibitor currently in phase I-II clinical studies in patients with advanced malignancies (Falchook et al., 2019).
as §1
DAPI nuclear counterstaining was also performed.

[3] = EGF at pharmacological doses before induction of pancreatitis
[4] = iKRAS mice pretreated before and during CAE rechallenge, p<0.01

B1: EGF (protein, UniProt P01133 23-1207, looked up)
Pro-epidermal growth factor: PQHWSCPEGTLAGNGNSTCVGPAPFLIFSHGNSIFRIDTEGTNYEQLVVDAGVSVIMDFHYNEKRIYWVDLERQLLQRVFLNGSRQERVCNIEKNVSGMAINWINEEVIWSNQQEGIITVTDMKGNNSHILLSALKYPANVAVDPVERFIFWSSEVAGSLYRADLDGVGVKALLETSEKITAVSLDVLDKRLFWIQYNREGSNSLICSCDYDGGSVHISKHPTQHNLFAMSLFGDRIFYSTWKMKTIWIANKHTGKDMVRINLHSSFVPLGELKVVHPLAQPKAEDDTWEPEQKLCKLRKGNCSSTVCGQDLQSHLCMCAEGYALSRDRKYCEDVNECAFWNHGCTLGCKNTPGSYYCTCPVGFVLLPDGKRCHQLVSCPRNVSECSHDCVLTSEGPLCFCPEGSVLERDGKTCSGCSSPDNGGCSQLCVPLSPVSWECDCFPGYDLQLDEKSCAASGPQPFLLFANSQDIRHMHFDGTDYGTLLSQQMGMVYALDHDPVENKIYFAHTALKWIERANMDGSQRERLIEEGVDVPEGLAVDWIGRRFYWTDRGKSLIGRSDLNGKRSKIITKENISQPRGIAVHPMAKRLFWTDTGINPRIESSSLQGLGRLVIASSDLIWPSGITIDFLTDKLYWCDAKQSVIEMANLDGSKRRRLTQNDVGHPFAVAVFEDYVWFSDWAMPSVMRVNKRTGKDRVRLQGSMLKPSSLVVVHPLAKPGADPCLYQNGGCEHICKKRLGTAWCSCREGFMKASDGKTCLALDGHQLLAGGEVDLKNQVTPLDILSKTRVSEDNITESQHMLVAEIMVSDQDDCAPVGCSMYARCISEGEDATCQCLKGFAGDGKLCSDIDECEMGVPVCPPASSKCINTEGGYVCRCSEGYQGDGIHCLDIDECQLGEHSCGENASCTNTEGGYTCMCAGRLSEPGLICPDSTPPPHLREDDHHYSVRNSDSECPLSHDGYCLHDGVCMYIEALDKYACNCVVGYIGERCQYRDLKWWELRHAGHGQQQKVIVVAVCVVVLVMLLLLSLWGAHYYRTQKLLSKNPKNPYEESSRDVRSRRPADTEDGMSSCPQPWFVVIKEHQDLKNGGQPVAGEDGQAADGSMQPTSWRQEPQLCGMGTEQGCWIPVSSDKGSCPQVMERSFHMPSYGTQTLEGGVEKPHSLLSANPLWQQRALDPPHQMELTQ
modifications: Pro-epidermal growth factor
notes: growth factor used as MAPK agonist / ADM inducer
In the case of B1, the ADM formation [1, 3] is reported as “largely promoted ADM formation”, the “tissue damage, evaluated as number of cells positive for cleaved caspase 3” value [1, 3] is reported as “strong reduction of tissue damage” and the “decreased tissue damage as indicated by CC3 immunostaining” value [1, 4] is reported as about 8 fold. The “increase of ADM formation (relative area) with respect to control mice rechallenged with CAE alone” value [1, 4] was about 3 fold and the “infiltration of CD45 cells (marker of inflammation)” value [2] was “almost completely suppressed; also recorded: significant decrease of CD45 infiltration”.
